We go through six molecules from article PMC4849863 (Nature structural & molecular biology, 2015).

B5: Dpb2 (S. cerevisiae), subunit of Pol ε (natural protein, Saccharomyces cerevisiae, UniProt P24482 1-689, looked up)
chain: MFGSGNVLPVKIQPPLLRPLAYRVLSRKYGLSIKSDGLSALAEFVGTNIGANWRQGPATIKFLEQFAAVWKQQERGLFIDQSGVKEVIQEMKEREKVEWSHEHPIQHEENILGRTDDDENNSDDEMPIAADSSLQNVSLSSPMRQPTERDEYKQPFKPESSKALDWRDYFKVINASQQQRFSYNPHKMQFIFVPNKKQNGLGGIAGFLPDIEDKVQMFLTRYYLTNDRVMRNENFQNSDMFNPLSSMVSLQNELSNTNRQQQSSSMSITPIKNLLGRDAQNFLLLGLLNKNFKGNWSLEDPSGSVEIDISQTIPTQGHYYVPGCMVLVEGIYYSVGNKFHVTSMTLPPGERREITLETIGNLDLLGIHGISNNNFIARLDKDLKIRLHLLEKELTDHKFVILGANLFLDDLKIMTALSKILQKLNDDPPTLLIWQGSFTSVPVFASMSSRNISSSTQFKNNFDALATLLSRFDNLTENTTMIFIPGPNDLWGSMVSLGASGTLPQDPIPSAFTKKINKVCKNVVWSSNPTRIAYLSQEIVIFRDDLSGRFKRHRLEFPFNESEDVYTENDNMMSKDTDIVPIDELVKEPDQLPQKVQETRKLVKTILDQGHLSPFLDSLRPISWDLDHTLTLCPIPSTMVLCDTTSAQFDLTYNGCKVINPGSFIHNRRARYMEYVPSSKKTIQEEIYI

In series [1] the target is CMG helicase (Cdc45-Mcm2-7-GINS, 11 subunits) (Saccharomyces cerevisiae, UniProt P29469;P24279;P30665;P29496;P53091;P38132;Q08032;Q12488;P40359;Q12146;Q03406 …). Description: EMSA. On the technique in general: A gel shift assay detects complexes by their altered migration in electrophoresis.
The target of series [2] is Mcm3 (S. cerevisiae), subunit of CMG (Saccharomyces cerevisiae, UniProt P24279 1-971). Description: cross-linking.
Mcm3 (S. cerevisiae), subunit of CMG, sequence (P24279 whole entry): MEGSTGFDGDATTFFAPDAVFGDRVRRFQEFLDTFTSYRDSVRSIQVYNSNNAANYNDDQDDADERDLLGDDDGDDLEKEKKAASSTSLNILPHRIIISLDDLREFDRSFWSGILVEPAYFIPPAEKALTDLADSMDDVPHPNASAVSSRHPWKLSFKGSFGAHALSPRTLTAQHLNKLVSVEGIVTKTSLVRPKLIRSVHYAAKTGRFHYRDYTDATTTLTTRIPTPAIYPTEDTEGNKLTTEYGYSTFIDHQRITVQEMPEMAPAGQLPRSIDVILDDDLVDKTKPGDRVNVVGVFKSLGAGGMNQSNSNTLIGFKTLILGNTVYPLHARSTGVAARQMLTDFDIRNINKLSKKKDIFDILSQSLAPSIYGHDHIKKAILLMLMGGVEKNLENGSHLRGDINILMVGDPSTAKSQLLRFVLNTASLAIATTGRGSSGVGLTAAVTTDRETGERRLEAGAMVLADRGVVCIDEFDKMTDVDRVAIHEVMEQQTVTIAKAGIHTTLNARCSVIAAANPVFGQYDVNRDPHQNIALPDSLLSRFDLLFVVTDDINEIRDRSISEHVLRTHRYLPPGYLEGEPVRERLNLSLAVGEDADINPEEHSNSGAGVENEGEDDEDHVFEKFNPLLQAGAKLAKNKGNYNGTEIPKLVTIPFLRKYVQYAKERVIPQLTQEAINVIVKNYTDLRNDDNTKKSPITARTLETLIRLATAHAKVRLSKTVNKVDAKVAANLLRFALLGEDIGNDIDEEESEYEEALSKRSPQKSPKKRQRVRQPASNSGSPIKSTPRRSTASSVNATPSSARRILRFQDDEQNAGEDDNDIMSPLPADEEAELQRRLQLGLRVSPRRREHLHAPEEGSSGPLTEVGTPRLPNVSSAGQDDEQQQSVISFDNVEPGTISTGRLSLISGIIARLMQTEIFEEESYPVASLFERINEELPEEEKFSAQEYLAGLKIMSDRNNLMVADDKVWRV
Series [3] addresses T1, Cdc45 (S. cerevisiae), subunit of CMG (Saccharomyces cerevisiae, UniProt Q08032 1-650).
T1 sequence (looked up): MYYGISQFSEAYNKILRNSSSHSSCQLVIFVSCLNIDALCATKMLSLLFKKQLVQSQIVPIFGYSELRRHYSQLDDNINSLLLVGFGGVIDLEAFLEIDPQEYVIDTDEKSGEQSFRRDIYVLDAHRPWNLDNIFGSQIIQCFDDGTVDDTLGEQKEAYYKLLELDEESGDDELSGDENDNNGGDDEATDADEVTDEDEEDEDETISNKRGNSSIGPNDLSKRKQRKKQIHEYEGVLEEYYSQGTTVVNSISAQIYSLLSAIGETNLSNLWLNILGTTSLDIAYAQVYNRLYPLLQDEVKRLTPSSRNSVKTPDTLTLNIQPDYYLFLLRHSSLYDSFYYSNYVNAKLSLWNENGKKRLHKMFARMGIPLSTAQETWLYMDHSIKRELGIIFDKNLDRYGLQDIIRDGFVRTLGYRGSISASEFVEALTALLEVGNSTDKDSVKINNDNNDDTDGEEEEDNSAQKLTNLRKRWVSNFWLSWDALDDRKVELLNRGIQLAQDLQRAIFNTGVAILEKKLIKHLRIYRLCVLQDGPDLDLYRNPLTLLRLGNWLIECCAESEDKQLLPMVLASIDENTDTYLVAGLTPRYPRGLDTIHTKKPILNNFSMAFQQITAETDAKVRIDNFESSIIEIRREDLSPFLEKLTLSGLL
The experiment in a line: cross-linking.

The target of series [4] is B5. Description: cross-linking.
In series [5] the target is T2, Mcm5 (S. cerevisiae), subunit of CMG (Saccharomyces cerevisiae, UniProt P29496 1-775).
T2 sequence (looked up): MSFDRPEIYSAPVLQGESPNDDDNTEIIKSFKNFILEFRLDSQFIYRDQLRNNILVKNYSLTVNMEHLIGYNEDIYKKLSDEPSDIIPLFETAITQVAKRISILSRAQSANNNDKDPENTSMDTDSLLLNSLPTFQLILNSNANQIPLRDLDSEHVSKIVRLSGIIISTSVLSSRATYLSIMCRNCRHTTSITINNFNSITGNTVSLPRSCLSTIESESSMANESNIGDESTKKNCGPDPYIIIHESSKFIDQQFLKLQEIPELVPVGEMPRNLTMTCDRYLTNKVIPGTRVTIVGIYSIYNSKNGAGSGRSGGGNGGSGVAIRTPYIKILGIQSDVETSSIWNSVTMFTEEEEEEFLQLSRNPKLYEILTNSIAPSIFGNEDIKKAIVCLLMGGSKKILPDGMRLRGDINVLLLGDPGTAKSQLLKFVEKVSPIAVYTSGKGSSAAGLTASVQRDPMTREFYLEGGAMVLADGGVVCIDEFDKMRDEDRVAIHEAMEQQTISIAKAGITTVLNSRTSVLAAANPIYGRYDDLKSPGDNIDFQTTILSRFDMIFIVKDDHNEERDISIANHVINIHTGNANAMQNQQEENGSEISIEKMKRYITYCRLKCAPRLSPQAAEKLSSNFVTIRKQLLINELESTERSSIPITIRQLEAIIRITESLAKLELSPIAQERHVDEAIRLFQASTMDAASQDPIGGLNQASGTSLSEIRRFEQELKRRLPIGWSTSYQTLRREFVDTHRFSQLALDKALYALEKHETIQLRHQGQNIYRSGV
The experiment in a line: cross-linking.

B1: 80/75mer unprimed fork (mixed)
DNA 1: CCCCCACCGATGTGGTAGGAAGTGAGAATTGGAGAGTGTGTTTTTTTTTTTTTTTTTTTTTTTTTTTTTTTTTTTTTTTT
DNA 2: TTTTTTTTTTTTTTTTTTTTTTTTTTTTTTTTTTTTTTTTCACACTCTCCAATTCTCACTTCCTACCACATCGGT
Turning to B1, in series [1], the binding result is “binds”.

B2: GINS heterotetramer (Psf1, Psf2, Psf3, Sld5) of S. cerevisiae CMG (complex, Saccharomyces cerevisiae)
chain 1: MYGDLGNKLVLEAKRTKQLYARSNQDVNLPMYHEDIIRNILKEVSNLRKNTEYLKEQQQLGMLDDKVAKCQYFVTLLCMERNKRCLLAYQRLRTDILDSMAWNNNGLDLMSSITFSQQDTNNLSHQEQEYLKEYCDLITDLKSGDLVDIDLSGSLVPPSDVFIDVRVLKDAGEIQTEYGVFNLIKDSQFFVRQSDVERLIQQGYLQKI
chain 2: MSLPAHLQQTFSPEEIQFIVENEPIKIFPRITTRQKIRGDDRGTGNHTRWQLITTDDKALNNMVAMRSTEVVLWIALLLKQQSKCSIVAPQWLTTKELDRKIQYEKTHPDRFSELPWNWLVLARILFNKAKDDFHDPIHELRGKIQDLREIRQIKVLKGLKYLNESHLQLDNLSLLEINELRPFITEIMDKLREIHTASLTAGTENDEEEFNI
chain 3: MGYYDIDDVLADGTEFPCKFQYDIPGLGYLENNPGRPITKNTKLSLPLWLARILAIVGGDEALVDEEPVPFVELLPPDMFSTKVMNAIKTDPVALDLHSINSHFFSLAIKWIMLFSEKELANVVSELLLQRAQELNHHASSLSIDLNADSTGKNSANTNIATSTFLLKLEEMEKEIYKKSHESYKDTKRWMFKK
chain 4: MDINIDDILAELDKETTAVDSTKITQGSSSTTHRDANTIVGSSLDLNDKTQIYVSPQQDFSDLMKSWKNERCSPELLPYPHQLMKRLLNRISMQSQLIENISMGFLDMQNASNANPPMPNESKLPLLCMETELERLKFVIRSYIRCRLSKIDKFSLYLRQLNEDENSLISLTDLLSKDEIKYHDTHSLIWLKLVNDSILKYMPEELQAINDTEGSVNMIDEPDWNKFVFIHVNGPPDGKWNEDPLLQENEFGKPCYTVTIPDLKEEVELTIGSIYVMRYEVIRDLLRDDKVALI
In the case of B2, in series [2], the binding result is “binds”.

B3: Psf1 (S. cerevisiae), subunit of GINS in CMG (natural protein, Saccharomyces cerevisiae, UniProt Q12488 1-208, looked up)
chain: MYGDLGNKLVLEAKRTKQLYARSNQDVNLPMYHEDIIRNILKEVSNLRKNTEYLKEQQQLGMLDDKVAKCQYFVTLLCMERNKRCLLAYQRLRTDILDSMAWNNNGLDLMSSITFSQQDTNNLSHQEQEYLKEYCDLITDLKSGDLVDIDLSGSLVPPSDVFIDVRVLKDAGEIQTEYGVFNLIKDSQFFVRQSDVERLIQQGYLQKI
Take B3: the binding result in series [3] and in series [4] was “binds” in each case.

B4: Dpb3 (S. cerevisiae), subunit of Pol ε (natural protein, Saccharomyces cerevisiae, UniProt P27344 1-201, looked up)
chain: MSNLVKEKAPVFPISKVKKIAKCDPEYVITSNVAISATAFAAELFVQNLVEESLVLAQLNSKGKTSLRLSLNSIEECVEKRDNFRFLEDAIKQLKKNSALDKKRELNMQPGRSDQEVVIEEPELHEDDGVEEEEEEDEVSEEEEPVHNEELLDDSKDQQNDKSTRSVASLLSRFQYKSALDVGEHSDSSDIEVDHTKSTDP
Regarding B4, in series [3], the binding result is listed as “binds”.

On to B5, for which the binding result in series [5] is reported as “binds”.

B6: Dpb4 (S. cerevisiae), subunit of Pol ε (natural protein, Saccharomyces cerevisiae, UniProt Q04603 1-196, looked up)
chain: MPPKGWRKDAQGNYPTTSYIKEQENITIQDLLFPKSTIVNLAREVPQQSGKKLLINKDASLALQRGATVFVNHLLLFAREIAKSQDKKSCSVDDVLSALDHIGHSALKGPVRDKLDEYQAAVEQRKKEKLDSGEVDADGDIDMGEDKENVPVEKVKEHDEIEEQGDALQDVEESSEKKQKTESQDVETRVQNLEQT
On to B6, for which the binding result in series [3] is recorded as “binds”.
